Laboratory results reported in US8217006B2, “Inhibiting GS-FDH to modulate no bioactivity” (Duke University, priority 2001, dated 2012).

Substrate: N[C@@H](CCC(=O)N[C@@H](CSN=O)C(=O)NCC(=O)O)C(=O)O
Assay: cells, lysate or membranes named
Conditions: other: purified protein from RAW 264.7 cells; pH 8.0

B1: mouse GS-FDH (Mus musculus) (protein)
chain: MANQVIRCKAAVAWEAGKPLSIEEIEVAPPKAHEVRIKILATAVCHTDAYTLSGADPEGCFPVILGHEGAGIVESVGEGVTKLKAGDTVIPLYIPQCGECKFCLNPKTNLCQKIRVTQGKGLMPDGTSRFTCKGKSVFHFMGTSTFSEYTVVADISVAKIDPSAPLDKVCLLGCGISTGYGAAVNTAKVEPGSTCAVFGLGGVGLAVIMGCKVAGASRIIGIDINKDKFAKAKEFGASECISPQDFSKSIQEVLVEMTDGGVDYSFECIGNVKVMRSALEAAHKGWGVSVVVGVAASGEEISTRPFQLVTGRTWKGTAFGGWKSVESVPKLVSEYMSKKIKVDEFVTGNLSFDQINQAFDLMHSGDSIRTVLKM
With B1 the Km was 20 µM and the kcat was 5,600 min^−1.
